Measurements as given in paper PMC3500560.

Molecular target: His6-tagged SYD-2LH1 (C. elegans) (UniProt Q21049)
Assay: pull-down

His6-tagged SYD-2LH1 (C. elegans), sequence (Q21049 91-217): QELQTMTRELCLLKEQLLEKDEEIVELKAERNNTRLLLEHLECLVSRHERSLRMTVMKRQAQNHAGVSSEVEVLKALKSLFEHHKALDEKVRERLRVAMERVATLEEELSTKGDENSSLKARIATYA

binding relative to SYD-2LH1 (percent): < 10%
Substance: GST-LH1Δ (Δ179–198) (from UniProt Q21049 1-1139) (domain or fragment)
